Measured values reported in the nanobody polyreactivity screen of Harvey et al. (2022).

Test: yeast display, Sf9 membrane polyspecificity reagent, FACS + sequencing; frameworks hold sequencing errors
In short: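 A synthetic nanobody library was expressed on Saccharomyces cerevisiae BJ5465 by galactose induction for 36–48 hours. The library was stained for 1 hour at 4 °C with 10% biotinylated, detergent-solubilized Sf9 membrane reagent and enriched with streptavidin microbeads before FACS. Low and high (top ~1%) gates were set on anti-HA fluorescence for expression and streptavidin fluorescence for reagent binding, and each polyreactivity label reflects the gate of origin.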

| Sequence | polyreactivity (PSR sort gate) |
| --- | --- |
| QVQLVESGGGLVQAGGSLRLSCAASGIIFSSYAMGWYRQAPGKERELVAAITYNGGRTYYADSVKGRFTISRDNAKNTVYLQMNSLKPEDTAVYYCAARTYGGNVLRLDYWGQGTQVTVSS | high polyreactivity |
| QVHLVESGGGLVQAGGSLRLSCAASASTYGSNSMGWYRQAPGKERELVAAITLPGASTYYADSVKGRFTISRDNAKNTVSLEMNSLKGEDTSVYSCAAQIHPRRDYSAFDYWGPGTQVTVSS | low polyreactivity |
| QVQLVESGGGLVQAGGSLRLSCAASGRIFFLNTMGWYRQAPGTERELVAAITRGGSTYYADSVKGRFTISRDNAKNTVYLQMNSLKPEDTAVYYCAADVYGGIGYDYWGQGTQVTVSS | low polyreactivity |
| QVQLVESGGGLVQAGGSLRLSCAASGSIFGYNAMGWSRPAPGKERELVAAITSSGGSTYYADSVKGRFTISRDNAKNTVYLQMNSLKPEDTAVYYCNARDWYIVWYDYWGQGTQVTVSS | low polyreactivity |
| QVQLVESGGGLVQAGGSLRLSCAASGSILGSYAMGWYRQAPGKERELVAAINYSGGSTYYADSVKGRFTISRDNAKNTVYLQMNSLKPEETAVYYCAAVATAGYSNYKLDYWGQGTQVTVSS | low polyreactivity |
| QVQLVESGGGLVQAGGSLRLSCAASGSTFYINALGWYRQAPGKESELVAAITWNSDSTYYADSVKVRFTISRDNSKNTVYLQMNSLKPEDTAVYYCNHDRIIWGRLYEEGDYWGQGTQVTVSS | low polyreactivity |
| QVQLVESGGGLVQAGGSLRLSCAASGRTFPRYAMGWYRQAPGKERELVAAISGTGGSTYYADSVKGRFTISRDNAKNTVYLQMNSLKPEDTAVYYCAAAFRDGFTRRYGYWGQGTQVTVSS | high polyreactivity |
| QVQLVESGGGLVQAGGSLRLSCAASGSIFYVYVMGWYRQAPGKERELVAAIDTGGGDTYYADSVKGRFTISRDNAKNTVYLQMNSLKPEDTAVYYCAAELYDYGDLYYSEYDYWGQGTQVTVSS | low polyreactivity |
| QGQLEESGGGLVQAGGSLRLSCAASGFIFGGNDMGWYRQAPGKERELVAAISKSGGRTYYADSVKGRFTISRDNAKNTVYLQMNSLKPEDTAVYYCAAVPGRTAEDYGEDYWGQGTQVTVSS | high polyreactivity |
| QVQLVESGGGLVQAGGSLRLSCAASGFTFDAYAMGWYRQAPGKERELVADINYSVGSTTYADSVKVRFTISRDNAKNTVYLQMNSLKPEDTAVYYCAAQGTWYAWDYDYWGQGTQVTVSS | low polyreactivity |
| QVQLVESGGGLVQAGGSLRLSCAASGRILQGYAMGWYRQAPGKERELVASIRTGGTTNYADSVKGRFTISRDNAKNTVYLQMNSLKPEDTAVYYCNLGYYSYYGRYYYWGQGTQVTVSS | high polyreactivity |
| QVQLVESGGGLVQAGGSLRLSCAASGSTFYSNAMGWYRPAPGKERELVASITRGGSTNYADSVKGRFTISRDNAKNTVYLQMNSLKPEDTAVYYCNAERRYYFYRYDYWGQGTQVTVSS | high polyreactivity |
| QVQLVESGGGLVQAGGSLRLSCAPSGIIFYVYAIGWYRQAPGMERELVADITYGDRTNYADSVNGRFTISRDNAKNTVYLQMNSLKPEDTAVYYCAAKRNVLLGYTDQSLYDYWGQGTQVTVSS | low polyreactivity |
| QVQLVESGGGLVQAGGSLRLSCAASGFTFSAYAMGWYRQAPGKERELVAAISRRGGSTYYADSVKGRFTISRDTAKNTVYLQMNSVKPEDTAVYYCATDYPPGYDYWGQGTQVSVSS | high polyreactivity |
| QVQLVESGGGLVQAGGSLRLSCAASGSTSILYAMGWYRQAPGKERELVAAISRSGGSTYYADSVKGRFTISRDNAKNTVYLQMNSLKPEDTAVYYCAAQWVYQYGFNYWGQGTQVTVSS | high polyreactivity |
| QVQLVESGGGLVQAGGSLRLSCAASGRIFPLYDMGWYRQAPGKERELVAAISSGGTTYYADSVKGRFTISRDNAKNTVYLQMNSLKPEDTEVYYCARRPAQRWGRFDYWVQGTQVTVSS | low polyreactivity |
| QVQLEDSGGGLVQAGGSLLLSCPASGRIRYGMGWYRQAPGKERELVATITRGGSTNYADSVKGRFTISRDNAKNTVFLKMISLKPEDTAVYYCNAGSSWYYWRGYAYDYWGQGTQVSVSS | high polyreactivity |
| QVQLVESGGGLVQAGGSLRLSCAASGSTLAFYAMGWYRQAPGKERELVAAIRRGGSTYYADSVKGRFTISRDNAKNTVYLQMNSLKPEDTAVYYCAARYRRVSYYYWGQGTQVTVSS | high polyreactivity |
| QVQLVESGGGLVQAGGSLRLSSAASGSIFSTNEMGCYRQAPGKERELVAAISVSGGSTYYADSVKGRFTISRDNAKNTVYLQMNSLKPEDTALYYCNADYTRGTMYYWGQGTQVTVSS | low polyreactivity |
| QVQLVESGGGLVQAGGSLRLSCASSGLIFAYYGMVWYRQAPGKEREFVAAISWRGGSTYYADSVKGRFTISRDNAKNTVYLQMNSLKPEDTAVYYCAARPLYGSARTNYGYWGQGTQVSVSS | high polyreactivity |
| QVQLVESGGGLVQAGGSLRLSCAASGFTFGNNAMGWYRQAPGTERELVAAISYGGGRTYYADSVKGRFTISRDNAKNTVYLQMNSLKPEDTAVYYCAKDPKYPLSGGYDYWGQGTQVTVSS | low polyreactivity |
| QVQLVESGGGLVQAGGSLRLSCAASGSIFHPYGMGWYRQAPGKERELVAAITSSGGDKYYADSVKGRFTISRDNAKNTVYLQMNSLKPEDTAVYYCAATGLPGYYAYDYWGQGTQVTVSS | low polyreactivity |

| Sequence | polyreactivity (PSR sort gate) |
| --- | --- |
| QVQLVESGGGLVQAGGSLRLSCAASGSIYYFNAMGWYRQAPGKERELVASITSGGSTNYADSVKGRFTLSRDNAKNTVYLQMNSLNPEDTAVYYCNARFPYLSRWLVRGLASYDYWGQGTQVTVSS | low polyreactivity |
| QVQLVESGGGLVQAGGSLRLSCAASGGTFSFYAMGWYRQAPGKEREFVAAITASDGSTYYADSVKGRFTSSRDNAKNTVYLQMNSLKPEDTAVYYCAADAYGYKFNSWGQGTQVTVSS | low polyreactivity |
| QVQLVESGGGLVQAGGSLRLSCAASGSTFTYYTMGWYRQAPGKERELVAAITSGTSTNYADSVKGRFTISRDNAKNTVYLQMNSLTPEDTAVYYEYDYWGQGTQVTVSS | low polyreactivity |
| QVQLVESGGGLVQAGGSLRLSCAASGFIFWTNTMGWYRQAPGKERELVAAISRSGGSTYYADSVKGRFTISRDNAKNTVYLQMNSLKPEDTAVYYCAKGYRGYSYGYWGQGTQVTVSS | high polyreactivity |
| QVQLVESGGGLVQAGGSLRLSCAASGRTFGLYAMGWYRQAPGKERELVASNTYSGGRTNYADSVKGRFTISRDNAKNTVYLQMNSLKPEDTAVYYCAASLWDDDSRLMYYWGQGTQVTVSS | high polyreactivity |
| QVQLVESGGGLVQAGGSLRLSCAASGRIFPSYDMGWYRQAPGKDRELVATISSRGDSTYYADSVKGRFTISRDNAKNTVYLQMNSLKPEDTAVYYCAAERPFWEYDYWGQGTQVTVSS | low polyreactivity |
| QVQLVESGGGLVQAGGSLRLSCAASGSIFPRDAMGRYRQAPGKERELVAAITGSGSSTYYADSVKGRFTISRDNAKNTVYLQMNSLKPEDTAVYYCNTARPTAAYDYWGQGTKVTVSS | low polyreactivity |
| QVQLVESGGGLVQAGGSLRLSCAASGSTFYRNAMGWYIQAPGKEREFVAAISYSGGGTYYADSVKGRFTISRDNAKNTVYLQMNSLKPEETAVYYCAADVSGWEYDYWGQVTQVTVSS | low polyreactivity |
| QVQLVESGGGLVQAGGSLRLSCAASGFTFWLYAMGWYRQAPGKEREFVAAISTSGGSTYADSVKGRFTISRDNAKNTVYLQMNSLKPEDTAVYYCNADPTTTTYRHQYNYWGQGTQVTVSS | low polyreactivity |
| QVQVVESGGGLVQAGGSLRLSCAASGRTFFFYAMGWYRQAPGKERELVAGITSRGTRTYYADSVKGRFTISRDNAKNTVYLQMNSLKPEDTAVYYCATDDSRDWLNYWGQGTQVTVSS | low polyreactivity |
| QVQLLESGRGLVQEGGSLRLSCAASGFTFTAYAMGWYRQAPGKERELVAVISVRGGRTRYADSVKGRFTLSRDNAKNTVYLQMNSLKPEDTAVYYCDARYRPYSGSPQYDYWGQGTQVTVSS | high polyreactivity |
| QVQLVESGGGLVQAGGSLRLSCAASGSTFYYYAMGWYRQAPGKERELVAAINSSGGNTYYADSVKGRFTISRDNAKNTVYLQMNSLKPEDTAVYYCATGQIAYSSYGPFDYWGQGTQVTVSS | low polyreactivity |
| QVQLVESGGGLVQAGGSLRLSCAASGFNIASYDMGWYRQAPGKERELVAAISKGGGRTYYADSVKGRFTISRDIAKNTVYLQMNSLKPEDTAVDYCAAEYRGYLHYHFQYLFDYWGQGTQVNVSS | low polyreactivity |
| QVQLVESGGGLVQAGGSLRLSCAASGRTFENYAMGWYRQAPGKERELVAAISKSGGSTYYADSVKGRFTISRDNAKNTVYLQMNSLKPEDTAVYYCAARLPGYYGIGDYWGQGTQVTVSS | high polyreactivity |
| QVQLVESGGGLVQAGGSLRLSCAASGLTFKQYALGWYRQAPGKERELVAAITVSGGDTYYADSVKGRFTISRDNAKNSVYLQMNSLKPVDTAVYYCAADHFFWGYDYWGQGTQVTVSS | high polyreactivity |
| QVQLVESGGGLVQAGGSLRLSCAASGFTFDIYAMGWYRQAPGKERELVATISRSGGTTYYADSVKGRFTISRDNAKNTVYLQMNSLKPEDTAVYYCAAGAYSYRYRYRMDYWGQGTQVTVSS | high polyreactivity |
| QVQLVESGGGLVQAGGSLRLSCAASGRTFWGYAMGWYRPAPGKERELVAAISSGGDTTYADSVKGRFTISRDNAKNTVYLQMNSLKPEDTAVFYCAADRWYSRYTRYGYWGQGTQVTVSS | low polyreactivity |
| QVQLEESGGGLVQAGGSLRLICAAYGSIIPYNAMGWYRQQPGEFVDAISYSSGSTYYADSVKGRFTISRDNAKNTVYLQMNSLKPEDTAVYYCAAGSWYPPSYVWLRRYDYWGQGTQVTVSS | low polyreactivity |
| QVQLVESGGGLVQAGGSLRLSCAASGLIFFFYAMGWYRQAPGKERELVASISGGGITYYADSVKGRFTISRDNAKNTVYLQMNSLKPEDTAVYYCAARVLDWRGDIHDSEYWGQGTQVTVSS | low polyreactivity |
| QVQLVESGGGLVQARGSLRLSCAASGSIFQYNAMGWYRQAPGKERELVAAINGGGSTYYADSVKGRFTISRNNAKNTVYLQLTSLNPEDTAVYYCNADAMDEDWRGYWGQGTQVTVSS | low polyreactivity |
| QVQLVESGGGLVQAGGSLRLSCADSGFIIGRYTMGWYRQAPGKERELVAAISFRGGSTYYADSVKGRFTISRDNAKNTVYLQMNCLKPEDTAVYYCAAYSSGPYGFDYWGQGTQVTVSS | high polyreactivity |
